Measurements from the supplement of paper PMC11246515.
± gives the standard deviation of the averaged measurements.

Assay: total protein half-life in vivo (active degradation + dilution); higher = more stable protein
[1] = E. coli NCM3722 delta-clpP delta-lon delta-hslV, growth: N-lim chemostat, doubling time 6 h
[2] = E. coli NCM3722 delta-clpP, growth: N-lim chemostat, doubling time 6 h
[3] = E. coli NCM3722 delta-hslV, growth: N-lim chemostat, doubling time 6 h
[4] = E. coli NCM3722 delta-lon, growth: N-lim chemostat, doubling time 6 h
[5] = E. coli NCM3722 delta-smpB, growth: N-lim chemostat, doubling time 6 h
[6] = wild type E. coli NCM3722, growth: C-lim chemostat, doubling time 3 h
[7] = wild type E. coli NCM3722, growth: C-lim chemostat, doubling time 12 h
[8] = wild type E. coli NCM3722, growth: N-lim chemostat, doubling time 6 h
[9] = wild type E. coli NCM3722, growth: N-lim chemostat, doubling time 12 h
[10] = wild type E. coli NCM3722, growth: P-lim chemostat, doubling time 6 h
[11] = wild type E. coli NCM3722, growth: P-lim chemostat, doubling time 12 h
[12] = wild type E. coli NCM3722, growth: C-lim chemostat, doubling time 6 h

Sequence	total protein half-life in vivo [1] [h]	total protein half-life in vivo [2] [h]	total protein half-life in vivo [3] [h]	total protein half-life in vivo [4] [h]	total protein half-life in vivo [5] [h]	total protein half-life in vivo [6] [h]	total protein half-life in vivo [7] [h]	total protein half-life in vivo [8] [h]	total protein half-life in vivo [9] [h]	total protein half-life in vivo [10] [h]	total protein half-life in vivo [11] [h]	total protein half-life in vivo [12] [h]
MTTETRSLYSQLPAIDRLLRDSSFLSLRDTYGHTRVVELLRQMLDEAREVIRGSQTLPAWCENWAQEVDARLTKEAQSALRPVINLTGTVLHTNLGRALQAEAAVEAVAQAMRSPVTLEYDLDDAGRGHRDRALAQLLCRITGAEDACIVNNNAAAVLLMLAATASGKEVVVSRGELVEIGGAFRIPDVMRQAGCTLHEVGTTNRTHANDYRQAVNENTALLMKVHTSNYSIQGFTKAIDEAELVALGKELDVPVVTDLGSGSLVDLSQYGLPKEPMPQELIAAGVSLVSFSGDKLLGGPQAGIIVGKKEMIARLQSHPLKRALRADKMTLAALEATLRLYLHPEALSEKLPTLRLLTRSAEVIQIQAQRLQAPLAAHYGAEFAVQVMPCLSQIGSGSLPVDRLPSAALTFTPHDGRGSHLESLAARWRELPVPVIGRIYDGRLWLDLRCLEDEQRFLEMLLK [P0A821]	6.33 ± 0.17	6.19 ± 0.19	5.62 ± 1	5.86 ± 0.47	5.49 ± 0.32	3.16 ± 0.51	11.7 ± 0.94	5.64 ± 0.39	10.6 ± 1	6.06 ± 0.4	11.9 ± 1.1	
MENLARFLSTTLKQLRQQRGWSLSRLAEATGVSKAMLGQIERNESSPTVATLWKIATGLNVPFSTFISPPQSATPSVYDPQQQAMVITSLFPYDPQLCFEHFSIQMASGAISESTPHEKGVIEHVVVIDGQLDLCVDGEWQTLNCGEGVRFAADVTHIYRNGGEQTVHFHSLIHYPRS	5.69 ± 0.83	4.59 ± 0.28	4.71 ± 0.22	5.58 ± 0.23	5.33 ± 1.1	3.4 ± 0.15	10.1 ± 0.49	4.52 ± 0.93	7.78 ± 0.9	6.27 ± 1.1	9.9 ± 0.44	5.27 ± 0.69
MKKVAIVGLGWLGMPLAMSLSARGWQVTGSKTTQDGVEAARMSGIDSYLLRMEPELVCDSDDLDALMDADALVITLPARRSGPGDEFYLQAVQELVDSALAHRIPRIIFTSSTSVYGDAQGTVKETTPRNPVTNSGRVLEELEDWLHNLPGTSVDILRLAGLVGPGRHPGRFFAGKTAPDGEHGVNLVHLEDVIGAITLLLQAPKGGHIYNICAPAHPARNVFYPQMARLLGLEPPQFRNSLDSGKGKIIDGSRICNELGFEYQYPDPLVMPLE [P0AD12]	4.79 ± 0.29	4.52 ± 0.45	4.63 ± 0.4	5.07 ± 0.57	4.5 ± 0.096	3.06 ± 0.16	8.76 ± 1.2	4.35 ± 0.44	7.41 ± 0.52	5.61 ± 0.32	11.1 ± 0.28	5.019 ± 0.0077
MSEKVVFSQLSRKFIDENDATPAEAQQVVYYSLAIGHHLGVIDCLEAALTCPWDEYLAWIATLEAGSEARRKMEGVPKYGEIVIDINHVPMLANAFDKARAAQTSQQQEWSTMLLSMLHDIHQENAIYLMVRRLRD [P0AEV7]	3.73	2.63		2.37 ± 0.25	1.7	2.34	6.99	2.24 ± 0.23	2.34	3.21	6.49 ± 0.1	3.73
MLQVYLVRHGETQWNAERRIQGQSDSPLTAKGEQQAMQVATRAKELGITHIISSDLGRTRRTAEIIAQACGCDIIFDSRLRELNMGVLEKRHIDSLTEEEENWRRQLVNGTVDGRIPEGESMQELSDRVNAALESCRDLPQGSRPLLVSHGIALGCLVSTILGLPAWAERRLRLRNCSISRVDYQESLWLASGWVVETAGDISHLDAPALDELQR [P0A7A2]	4.23 ± 1.4	2.57 ± 0.17	2.36 ± 0.011	2.852 ± 0.012	2.65 ± 0.051	2.75 ± 0.28	7.06 ± 0.16	2.71 ± 0.11	3.84 ± 0.45	4.88 ± 0.12	8.06 ± 1	4.55 ± 0.27
